From PMC4394509
Each block holds one substance with its values, some of them ahead of it.

Tests used:
Test in all cases: FRET or BRET; acceptor-bleaching FRET at kinetochores of transfected human cells (HeLa, HEp-2, U2OS), in vivo or in situ; donor EGFP, acceptor mCherry; E_FRET of a bleached region compared with EVAR of an unbleached region
mCherry-CENP-S = mCherry-CENP-S (UniProt Q8N2Z9)
CENP-S-mCherry = CENP-S-mCherry (UniProt Q8N2Z9)
EGFP-CENP-U = EGFP-CENP-U (UniProt Q71F23)
mCherry-H3.1 (human) = mCherry-H3.1 (human) (UniProt P68431)
mCherry-CENP-B = mCherry-CENP-B (UniProt P07199)
CENP-B-mCherry = CENP-B-mCherry (UniProt P07199)

Sequence of UniProt Q71F23 (Q71F23 whole entry): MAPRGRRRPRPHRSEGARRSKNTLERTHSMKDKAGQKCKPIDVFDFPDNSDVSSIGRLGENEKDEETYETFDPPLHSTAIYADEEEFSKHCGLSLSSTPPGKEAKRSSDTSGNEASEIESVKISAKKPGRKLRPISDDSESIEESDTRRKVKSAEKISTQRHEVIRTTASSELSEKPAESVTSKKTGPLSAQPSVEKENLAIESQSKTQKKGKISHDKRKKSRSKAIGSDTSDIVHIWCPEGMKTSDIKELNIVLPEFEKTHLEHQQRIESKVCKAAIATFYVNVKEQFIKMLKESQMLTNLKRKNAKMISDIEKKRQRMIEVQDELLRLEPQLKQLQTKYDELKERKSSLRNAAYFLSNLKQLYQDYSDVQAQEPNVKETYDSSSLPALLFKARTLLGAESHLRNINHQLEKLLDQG

mean E FRET % (mCherry-CENP-S): 4% | ΔE % (mCherry-CENP-S): 4.78% | mean E FRET % (CENP-S-mCherry): 3.49% | ΔE % (CENP-S-mCherry): 3.91%
Substance: CENP-M-EGFP (from UniProt Q9NSP4 1-180) (natural protein)

mean E FRET % (EGFP-CENP-U): 6.08% | ΔE % (EGFP-CENP-U): 7.86%
Substance: CENP-M-mCherry (from UniProt Q9NSP4 1-180) (natural protein)

mean E FRET % (mCherry-H3.1 (human)): 3.7% | ΔE % (mCherry-H3.1 (human)): 5.8% | mean E FRET % (mCherry-CENP-B): 5.07% | ΔE % (mCherry-CENP-B): 4.4%
Substance: CENP-W-EGFP (from UniProt Q5EE01 1-88) (natural protein)

mean E FRET % (CENP-B-mCherry): 4.37% | ΔE % (CENP-B-mCherry): 3.6%
Substance: EGFP-CENP-W (from UniProt Q5EE01 1-88) (natural protein)
